The test system of one series is HeLa cells. In words: HeLa cell viability (CCK-8) in 3D h9e hydrogel. The class given is cell-based. The settings on record: 3-day treatment, various concentrations of camptothecin, in h9e hydrogel. As to the method:
Cell culture and drug efficacy/diffusion tests: HeLa cells were grown in the hydrogel in 3D. Aliquots of HeLa cells solution were added into […] hydrogel with DMEM containing 10% FBS with a final peptide concentration of 0, 0.25, 0.5 and 1 wt %. 100 μl of cell mixture solution (3×10^4 cells per well) was seeded into a 96-well culture plate (Becton Dickinson Labware, Franklin Lakes, N.J.) and placed in an incubator (Nuair, Playmouth, Minn.) in a humidified 5% CO2 atmosphere at 37° C. for about 30 min. After complete hydrogelation, 10 μl of DMEM containing 0, 50 uM, 100 uM, or 200 uM camptothecin was added on top of the hydrogel to obtain camptothecin concentrations of 0 μM, 3.125 μM, 6.25 μM, and 12.5 μM, respectively, upon total diffusion in the hydrogel. Then, 50 ul of DMEM was carefully added to the top of the hydrogel to prevent drying during long-term incubation. All measurements were made at least in triplicate, and the plates were incubated for 3 days. A CCK-8 assay was used to determine cell viability after each treatment. 10 μL of CCK solution was added to each well. After 4 h of incubation, the absorbance at 450 nm was collected on a microplate reader (mQuant, Bio-Tek) and corrected by subtracting the background signal from a wall containing only 160 ul DMEM containing 10% FBS. […]

Series [1] in a line: Instantaneous gelation time sweep of peptide sequences 1, 3 and 4. As to conditions: for final gel strength after 30 minute gelation time sweep: triggered with 100 mM CaCl2 solution (FIG. 12, 13). It counts as physicochemical. As to the method:
Similar to the methods used in U.S. 2013/0018004. Hydrogels were prepared with peptide 1, 3, and 4 alone, or mixture of peptide sequence 1 and 4 at 1:1 ratio. Hydrogels were triggered by calcium ions and BSA alone or co-trigger (calcium ions+BSA).

Series [2] can be described thus: Gelation test of ECM ligand built-in or blended hydrogels. It counts as physicochemical. As to conditions: 0.5% peptide solution triggered with 0.5% BSA solution, 37° C., 30 min. As to the method:
In this Example, an ECM ligand RGD built-in peptide (i.e., FLIVI-GSII-GPGGDGPGGDGRGD (SEQ ID NO:69)) was formulated into a hydrogel at 0.5% peptide solution triggered with 0.5% BSA solution. Gelation test was performed at 37° C. for 30 min. Gel strength was about 500 Pa, similar as the regular h9e hydrogel (FIG. 18.). Peptide synthesis followed the same procedure described in Example V.
Rheology Measurements: The hydrogel samples were characterized for mechanical properties. Gelation was determined right after the peptide solution triggered using either metal ion (i.e., Ca++) or albumin proteins (i.e., BSA) using C-VOR 150 rheometer system at both room temperature and 37° C. following our previous procedure. The maximum gel strength after 24 hours was used as the gel strength. The hydrogel samples after 24 hours was used and loaded in the probe system, and examined at a single frequency (1 Hz) and steady shear strain (1%). For shear-thinning experiments, the samples were subjected to shear and then observe the strain of the storage (G′) and loss (G″) modulus as a function of time following our previous procedures.
Regular h9e peptide described in Example VI can be blended with ECM ligands and functional proteins. […]

Turning to `CC[C@@]1(O)C(=O)OCc2c1cc1n(c2=O)Cc2cc3ccccc3nc2-1` [Camptothecin, reference compound], in the series with HeLa cells, the HeLa cell viability entry was “dose-dependent decrease in cell viability”.
Turning to “FLIVIGSIIGPGVDPGGAD (Derivative of spider flagelliform silk protein and a trans-membrane segment of subunit IV in the dihydropyridine sensitive human muscle L-type calcium channel) [Sequence 4]”, in series [1], the hydrogel formation entry was “yielded a peptide hydrogel” and the “final gel strength after 30 minute gelation time sweep” value is reported as 496 Pa. Besides, the gel strength entry in series [1] (triggered with BSA) is reported as “about 150 Pa”. The gel strength result in series [1] (triggered with calcium) is listed as “about 550 Pa”.
As to “FLIVI-GSII-GPGGDGPGGDGRGD (FLIVIGSIIGPGGDGPGGDGRGD; FLIVI-GSII N-terminal extension; Derivative of spider flagelliform silk protein and a trans-membrane segment of subunit IV in the dihydropyridine sensitive human muscle L-type calcium channel with built-in ECM ligand) [SEQ ID NO:69]”, the Gel strength entry in series [2] is reported as “about 500 Pa”.
Regarding “FLIVIGSIIPGGGDGPGGD (Derivative of spider flagelliform silk protein and a trans-membrane segment of subunit IV in the dihydropyridine sensitive human muscle L-type calcium channel) [Sequence 3]”, in series [1], the hydrogel formation entry is “yielded a peptide hydrogel” and the “final gel strength after 30 minute gelation time sweep” value is listed as 196 Pa.

These data come from patent US11135163B2, “Peptide hydrogel properties and its applications” (Kansas State University Research Foundation, priority 2014, dated 2021).
